Test results taken from article PMC5794333, “Identification of osmoadaptive strategies in the halophile, heterotrophic ciliate Schmidingerothrix salinarum” (PLoS Biology, 2018).

Legend:
[1] = system: O=C(O)CC(C(=O)O)C(O)C(=O)O; test: purified protein; settings: 0.05 M NaCl, 0.8 mM NADP+, 1 mM MgCl2, 32.5 mM Tris/HCl pH 7.5, concentration as DL-isocitrate, text b40 prints 0.010 mM, the table's Vmax/Km fits 0.019
O=C(O)CC(=O)C(=O)O = test: purified protein; settings: 0.05 M NaCl, 0.3 mM NADH, 32.5 mM Tris/HCl pH 7.5

Row | Substance | Km [1] | Vmax [1] | Km (O=C(O)CC(=O)C(=O)O) | Vmax (O=C(O)CC(=O)C(=O)O)
1 | ICDHS.salinarum (Schmidingerothrix salinarum) | 19 µM | 6.8 µmol/min/mg | – | –
2 | MDHS.salinarum (Schmidingerothrix salinarum) | – | – | 38 µM | 2060 µmol/min/mg
